Experimental data reported in the supplement of paper PMC5998384.

How the values were obtained:
[1] = test system: HeLa Kyoto; test: solubility in G1/S (NP-40 vs SDS abundance) (log2 ratio); higher = more soluble; details: cell cycle stage: G1/S
[2] = test system: HeLa Kyoto; test: melting temperature (median over replicates), in situ; higher = more thermally stable
[3] = test system: HeLa Kyoto; test: solubility change mitosis vs G1/S (difference of NP-40 vs SDS log2 ratios) (log2 ratio difference); higher = more soluble in mitosis
[4] = test system: HeLa Kyoto; test: thermal stability score vs G1/S (z-score of summed log2 fold changes over temperatures); higher = more thermally stable than in G1/S
[5] = cell cycle stage: early G1 (4.5 h after nocodazole release)
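Throughout, for melting temperature (median over replicates), in situ: HeLa Kyoto cells synchronized by double thymidine or nocodazole block, proteins quantified by TMT10plex mass spectrometry, three independent biological replicates.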
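Throughout, for solubility change mitosis vs G1/S (difference of NP-40 vs SDS log2 ratios): synchronized HeLa Kyoto cells (double thymidine block for G1/S, nocodazole release for mitosis), protein amounts in NP-40 versus SDS lysates quantified by mass spectrometry, three biological replicates.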
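Throughout, for solubility in G1/S (NP-40 vs SDS abundance): HeLa Kyoto cells arrested at G1/S by double thymidine block, proteins quantified by TMT10plex mass spectrometry in mild NP-40 versus SDS extracts, three biological replicates.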
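Throughout, for thermal stability score vs G1/S (z-score of summed log2 fold changes over temperatures): synchronized HeLa Kyoto cells, proteins quantified by TMT10plex mass spectrometry, three biological replicates, mitosis taken 0.5 h after nocodazole release, G1/S directly after double thymidine block.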

Sequence of HSPA2 (chain, as listed by the source): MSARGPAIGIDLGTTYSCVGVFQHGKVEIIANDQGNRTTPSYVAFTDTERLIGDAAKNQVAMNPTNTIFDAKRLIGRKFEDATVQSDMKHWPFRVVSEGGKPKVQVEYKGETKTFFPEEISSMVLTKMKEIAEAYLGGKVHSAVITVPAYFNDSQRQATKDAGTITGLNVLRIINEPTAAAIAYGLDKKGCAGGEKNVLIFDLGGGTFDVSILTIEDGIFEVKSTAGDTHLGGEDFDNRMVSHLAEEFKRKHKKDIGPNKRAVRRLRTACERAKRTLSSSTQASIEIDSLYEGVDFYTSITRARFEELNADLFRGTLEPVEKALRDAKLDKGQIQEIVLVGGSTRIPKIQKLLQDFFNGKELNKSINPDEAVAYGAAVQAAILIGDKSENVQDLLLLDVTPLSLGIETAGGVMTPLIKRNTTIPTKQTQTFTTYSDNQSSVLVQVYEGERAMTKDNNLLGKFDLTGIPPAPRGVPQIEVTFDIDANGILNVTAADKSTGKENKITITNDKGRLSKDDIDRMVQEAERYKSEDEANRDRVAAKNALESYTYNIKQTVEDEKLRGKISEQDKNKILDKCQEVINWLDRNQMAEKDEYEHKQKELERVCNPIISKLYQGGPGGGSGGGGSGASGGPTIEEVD
Sequence of RPIA (chain, as listed by the source): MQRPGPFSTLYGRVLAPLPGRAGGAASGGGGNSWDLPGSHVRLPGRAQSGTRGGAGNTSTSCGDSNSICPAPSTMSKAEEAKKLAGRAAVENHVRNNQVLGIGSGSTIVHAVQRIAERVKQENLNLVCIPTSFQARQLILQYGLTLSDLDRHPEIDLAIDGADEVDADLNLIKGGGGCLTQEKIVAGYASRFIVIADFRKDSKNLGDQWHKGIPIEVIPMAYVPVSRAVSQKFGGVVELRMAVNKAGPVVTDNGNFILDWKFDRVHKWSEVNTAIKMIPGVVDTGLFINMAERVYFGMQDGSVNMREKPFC

| Substance | solubility in G1/S (log2) [1] | melting temperature ([2]; cell cycle stage: G1/S) [°C] | melting temperature ([2]; cell cycle stage: mitosis) [°C] | solubility change mitosis (log2) [3] | thermal stability score [4, 5] | thermal stability score ([4]; cell cycle stage: mitosis) |
| --- | --- | --- | --- | --- | --- | --- |
| HEATR1 | -1.01 | 48.4 | 49.2 | 0.265 | 1.16 | 2.97 |
| RPIA | 0.208 | 56.4 | 55.2 | -0.157 | -0.283 | -2.14 |
| MEEVRCPEHGTFCFLKTGVRDGPNKGKSFYVCRADTCSFVRATDIPVSHCLLHEDFVVELQGLLLPQDKKEYRLFFRCIRSKAEGKRWCGSIPWQDPDSKEHSVSNKSQHASETFHHSSNWLRNPFKVLDKNQEPALWKQLIKGEGEEKKADKKQREKGDQLFDQKKEQKPEMMEKDLSSGLVPKKKQSVVQEKKQEEGAEIQCEAETGGTHKRDFSEIKSQQCQGNELTRPSASSQEKSSGKSQDVQRESEPLREKVTQLLPQNVHSHNSISKPQKGGPLNKEYTNWEAKETKAKDGPSIQATQKSLPQGHFQERPETHSVPAPGGPAAQAAPAAPGLSLGEGREAATSSDDEEEDDVVFVSSKPGSPLLFDSTLDLETKENLQFPDRSVQRKVSPASGVSKKVEPSDPVARRVYLTTQLKQKKSTLASVNIQALPDKGQKLIKQIQELEEVLSGLTLSPEQGTNEKSNSQVPQQSHFTKTTTGPPHLVPPQPLPRRGTQPVGSLELKSACQVTAGGSSQCYRGHTNQDHVHAVWKITSEAIGQLHRSLESCPGETVVAEDPAGLKVPLLLHQKQALAWLLWRESQKPQGGILADDMGLGKTLTMIALILTQKNQEKKEEKEKSTALTWLSKDDSCDFTSHGTLIICPASLIHHWKNEVEKRVNSNKLRVYLYHGPNRDSRARVLSTYDIVITTYSLVAKEIPTNKQEAEIPGANLNVEGTSTPLLRIAWARIILDEAHNVKNPRVQTSIAVCKLQACARWAVTGTPIQNNLLDMYSLLKFLRCSPFDEFNLWRSQVDNGSKKGGERLSILTKSLLLRRTKDQLDSTGRPLVILPQRKFQLHHLKLSEDEETVYNVFFARSRSALQSYLKRHESRGNQSGRSPNNPFSRVALEFGSEEPRHSEAADSPRSSTVHILSQLLRLRQCCCHLSLLKSALDPMELKGEGLVLSLEEQLSALTLSELRDSEPSSTVSLNGTFFKMELFEGMRESTKISSLLAELEAIQRNSASQKSVIVSQWTNMLKVVALHLKKHGLTYATIDGSVNPKQRMDLVEAFNHSRGPQVMLISLLAGGVGLNLTGGNHLFLLDMHWNPSLEDQACDRIYRVGQQKDVVIHRFVCEGTVEEKILQLQEKKKDLAKQVLSGSGESVTKLTLADLRVLFGI [TTF2] | -0.107 | 48.3 | 49.1 | -0.0303 | 0.916 | 0.826 |
| MPKRKVTFQGVGDEEDEDEIIVPKKKLVDPVAGSGGPGSRFKGKHSLDSDEEEDDDDGGSSKYDILASEDVEGQEAATLPSEGGVRITPFNLQEEMEEGHFDADGNYFLNRDAQIRDSWLDNIDWVKIRERPPGQRQASDSEEEDSLGQTSMSAQALLEGLLELLLPRETVAGALRRLGARGGGKGRKGPGQPSSPQRLDRLSGLADQMVARGNLGVYQETRERLAMRLKGLGCQTLGPHNPTPPPSLDMFAEELAEEELETPTPTQRGEAESRGDGLVDVMWEYKWENTGDAELYGPFTSAQMQTWVSEGYFPDGVYCRKLDPPGGQFYNSKRIDFDLYT [CD2BP2] | 0.00357 | 47.9 | 51.2 | 0.301 | 0.517 | 0.833 |
| MQTFLKGKRVGYWLSEKKIKKLNFQAFAELCRKRGMEVVQLNLSRPIEEQGPLDVIIHKLTDVILEADQNDSQSLELVHRFQEYIDAHPETIVLDPLPAIRTLLDRSKSYELIRKIEAYMEDDRICSPPFMELTSLCGDDTMRLLEKNGLTFPFICKTRVAHGTNSHEMAIVFNQEGLNAIQPPCVVQNFINHNAVLYKVFVVGESYTVVQRPSLKNFSAGTSDRESIFFNSHNVSKPESSSVLTELDKIEGVFERPSDEVIRELSRALRQALGVSLFGIDIIINNQTGQHAVIDINAFPGYEGVSEFFTDLLNHIATVLQGQSTAMAATGDVALLRHSKLLAEPAGGLVGERTCSASPGCCGSMMGQDAPWKAEADAGGTAKLPHQRLGCNAGVSPSFQQHCVASLATKASSQ [ITPK1] | 0.0668 | 51.9 | 51.3 | -0.011 | 0.291 | -1.14 |
| MSATSVDQRPKGQGNKVSVQNGSIHQKDAVNDDDFEPYLSSQTNQSNSYPPMSDPYMPSYYAPSIGFPYSLGEAAWSTAGDQPMPYLTTYGQMSNGEHHYIPDGVFSQPGALGNTPPFLGQHGFNFFPGNADFSTWGTSGSQGQSTQSSAYSSSYGYPPSSLGRAITDGQAGFGNDTLSKVPGISSIEQGMTGLKIGGDLTAAVTKTVGTALSSSGMTSIATNSVPPVSSAAPKPTSWAAIARKPAKPQPKLKPKGNVGIGGSAVPPPPIKHNMNIGTWDEKGSVVKAPPTQPVLPPQTIIQQPQPLIQPPPLVQSQLPQQQPQPPQPQQQQGPQPQAQPHQVQPQQQQLQNRWVAPRNRGAGFNQNNGAGSENFGLGVVPVSASPSSVEVHPVLEKLKAINNYNPKDFDWNLKNGRVFIIKSYSEDDIHRSIKYSIWCSTEHGNKRLDAAYRSLNGKGPLYLLFSVNGSGHFCGVAEMKSVVDYNAYAGVWSQDKWKGKFEVKWIFVKDVPNNQLRHIRLENNDNKPVTNSRDTQEVPLEKAKQVLKIIATFKHTTSIFDDFAHYEKRQEEEEAMRRERNRNKQ [YTHDF3] | 0.098 | 52.4 | 51.6 | -0.0838 | -0.535 | -3.39 |
| HSPA2 | 0.111 | 53.2 | 52.4 | -0.0491 | 0.118 | 1.01 |
| MSTGDSFETRFEKMDNLLRDPKSEVNSDCLLDGLDALVYDLDFPALRKNKNIDNFLSRYKDTINKIRDLRMKAEDYEVVKVIGRGAFGEVQLVRHKSTRKVYAMKLLSKFEMIKRSDSAFFWEERDIMAFANSPWVVQLFYAFQDDRYLYMVMEYMPGGDLVNLMSNYDVPEKWARFYTAEVVLALDAIHSMGFIHRDVKPDNMLLDKSGHLKLADFGTCMKMNKEGMVRCDTAVGTPDYISPEVLKSQGGDGYYGRECDWWSVGVFLYEMLVGDTPFYADSLVGTYSKIMNHKNSLTFPDDNDISKEAKNLICAFLTDREVRLGRNGVEEIKRHLFFKNDQWAWETLRDTVAPVVPDLSSDIDTSNFDDLEEDKGEEETFPIPKAFVGNQLPFVGFTYYSNRRYLSSANPNDNRTSSNADKSLQESLQKTIYKLEEQLHNEMQLKDEMEQKCRTSNIKLDKIMKELDEEGNQRRNLESTVSQIEKEKMLLQHRINEYQRKAEQENEKRRNVENEVSTLKDQLEDLKKVSQNSQLANEKLSQLQKQLEEANDLLRTESDTAVRLRKSHTEMSKSISQLESLNRELQERNRILENSKSQTDKDYYQLQAILEAERRDRGHDSEMIGDLQARITSLQEEVKHLKHNLEKVEGERKEAQDMLNHSEKEKNNLEIDLNYKLKSLQQRLEQEVNEHKVTKARLTDKHQSIEEAKSVAMCEMEKKLKEEREAREKAENRVVQIEKQCSMLDVDLKQSQQKLEHLTGNKERMEDEVKNLTLQLEQESNKRLLLQNELKTQAFEADNLKGLEKQMKQEINTLLEAKRLLEFELAQLTKQYRGNEGQMRELQDQLEAEQYFSTLYKTQVKELKEEIEEKNRENLKKIQELQNEKETLATQLDLAETKAESEQLARGLLEEQYFELTQESKKAASRNRQEITDKDHTVSRLEEANSMLTKDIEILRRENEELTEKMKKAEEEYKLEKEEEISNLKAAFEKNINTERTLKTQAVNKLAEIMNRKDFKIDRKKANTQDLRKKEKENRKLQLELNQEREKFNQMVVKHQKELNDMQAQLVEECAHRNELQMQLASKESDIEQLRAKLLDLSDSTSVASFPSADETDGNLPESRIEGWLSVPNRGNIKRYGWKKQYVVVSSKKILFYNDEQDKEQSNPSMVLDIDKLFHVRPVTQGDVYRAETEEIPKIFQILYANEGECRKDVEMEPVQQAEKTNFQNHKGHEFIPTLYHFPANCDACAKPLWHVFKPPPALECRRCHVKCHRDHLDKKEDLICPCKVSYDVTSARDMLLLACSQDEQKKWVTHLVKKIPKNPPSGFVRASPRTLSTRSTANQSFRKVVKNTSGKTS [ROCK1] | -0.0278 | 50.4 | 50.2 | -0.138 | -0.147 | -0.118 |
| CXORF56 | -0.0564 | 50.6 | 51.3 | 0.1 | -1.87 | -1.28 |
| MSQSGAVSCCPGATNGSLGRSDGVAKMSPKDLFEQRKKYSNSNVIMHETSQYHVQHLATFIMDKSEAITSVDDAIRKLVQLSSKEKIWTQEMLLQVNDQSLRLLDIESQEELEDFPLPTVQRSQTVLNQLRYPSVLLLVCQDSEQSKPDVHFFHCDEVEAELVHEDIESALADCRLGKKMRPQTLKGHQEKIRQRQSILPPPQGPAPIPFQHRGGDSPEAKNRVGPQVPLSEPGFRRRESQEEPRAVLAQKIEKETQILNCALDDIEWFVARLQKAAEAFKQLNQRKKGKKKGKKAPAEGVLTLRARPPSEGEFIDCFQKIKLAINLLAKLQKHIQNPSAAELVHFLFGPLDLIVNTCSGPDIARSVSCPLLSRDAVDFLRGHLVPKEMSLWESLGESWMRPRSEWPREPQVPLYVPKFHSGWEPPVDVLQEAPWEVEGLASAPIEEVSPVSRQSIRNSQKHSPTSEPTPPGDALPPVSSPHTHRGYQPTPAMAKYVKILYDFTARNANELSVLKDEVLEVLEDGRQWWKLRSRSGQAGYVPCNILGEARPEDAGAPFEQAGQKYWGPASPTHKLPPSFPGNKDELMQHMDEVNDELIRKISNIRAQPQRHFRVERSQPVSQPLTYESGPDEVRAWLEAKAFSPRIVENLGILTGPQLFSLNKEELKKVCGEEGVRVYSQLTMQKAFLEKQQSGSELEELMNKFHSMNQRRGEDS [EPS8L2] | 0.468 | 50.4 | 50.1 | -0.0548 | 0.00646 | 0.475 |
| ARHGAP21 | -0.453 | 47.6 | 50.2 | 0.156 | 0.0615 | 0.748 |
| MVMEKPSPLLVGREFVRQYYTLLNKAPEYLHRFYGRNSSYVHGGVDASGKPQEAVYGQNDIHHKVLSLNFSECHTKIRHVDAHATLSDGVVVQVMGLLSNSGQPERKFMQTFVLAPEGSVPNKFYVHNDMFRYEDEVFGDSEPELDEESEDEVEEEQEERQPSPEPVQENANSGYYEAHPVTNGIEEPLEESSHEPEPEPESETKTEELKPQVEEKNLEELEEKSTTPPPAEPVSLPQEPPKAFSWASVTSKNLPPSGTVSSSGIPPHVKAPVSQPRVEAKPEVQSQPPRVREQRPRERPGFPPRGPRPGRGDMEQNDSDNRRIIRYPDSHQLFVGNLPHDIDENELKEFFMSFGNVVELRINTKGVGGKLPNFGFVVFDDSEPVQRILIAKPIMFRGEVRLNVEEKKTRAARERETRGGGDDRRDIRRNDRGPGGPRGIVGGGMMRDRDGRGPPPRGGMAQKLGSGRGTGQMEGRFTGQRR [G3BP2] | -0.124 | 51.7 | 50.4 | 0.158 | -0.995 | -2.86 |
| MEVVPAEVNSLLPEEIMDTGITLVDDDSIEAVIVSSPIPMETELEEIVNINSTGDSTATPISTEPITVYSNHTNQVAVNTTITKADSNTTVKPAFPSGLQKLGAQTPVTISANQIILNKVSQTSDLKLGNQTLKPDGQKLILTTLGKSGSPIVLALPHSQLPQAQKVTTQAQSGDAKLPPQQIKVVTIGGRPEVKPVIGVSALTPGSQLINTTTQPSVLQTQQLKTVQIAKKPRTPTSGPVITKLIFAKPINSKAVTGQTTQVSPPVIAGRVLSQSTPGTPSKTITISESGVIGSTLNSTTQTPNKIAISPLKSPNKAVKSTVQTITVGGVSTSQFKTIIPLATAPNVQQIQVPGSKFHYVRLVTATSASSSTQPVSQNPSTNTQPLQQAKPVVVNTTPVRMSVPIVSAQAVKQVVPKPINPTSQIVTTSQPQQRLIMPATPLPQIQPNLTNLPPGTVLAPAPGTGNVGYAVLPAQYVTQLQQSSYVSIASNSTFTGTSGIQTQARLPFNGIIPSESASRPRKPCNCTKSLCLKLYCDCFANGEFCNNCNCTNCYNNLEHENERQKAIKACLDRNPEAFKPKIGKGKEGESDRRHSKGCNCKRSGCLKNYCECYEAKIMCSSICKCIGCKNFEESPERKTLMHLADAAEVRVQQQTAAKTKLSSQISDLLTRPTPALNSGGGKLPFTFVTKEVAEATCNCLLAQAEQADKKGKSKAAAERMILEEFGRCLMSVINSAGKAKSDPCAMNC [LIN54] | 0.15 | 46.4 | 50.1 | -0.11 | 0.22 | 0.778 |
